For data set [1] the following is noted: FP. An excerpt: (§1) Fluorescence polarization (FP) is ideal for the study of small fluorescent ligands binding to proteins. It is unique among methods used to analyze molecular binding because it gives direct nearly instantaneous measure of a substrate bound/free ratio. Therefore, an FP assay was developed as an alternative approach to fluorimage gel analysis of the purified DhaA mutants.
(§2) Based on the sensitivity and truly homogenous nature of this assay, FP was used to characterize the labeling properties of the purified DhaA mutants with the fluorescently coupled substrates. The data from these studies was then used to calculate a second order rate constant for each DhaA mutant-substrate pair.

Data set [2] concerns the target T1, rapamycin-mediated FRB/FKBP protein-protein interaction (Homo sapiens, UniProt P42345+P62942).
T1 construct: made in house; host or cells: cell-free: RiboMax transcription, Wheat Germ Plus translation
Description: Protein complementation labeling (PCL) in vitro with HT2 fragments, rapamycin-mediated FRB/FKBP. Format: biochemical. The conditions noted are these: with or without 1 μM rapamycin, 0.1 μM TMR ligand 2 hours. The method, then:
The rapamycin-mediated FRB/FKBP protein-protein interaction and a mutant DhaA were employed in a PCL. FRB and FKBP will only interact when rapamycin is present. Therefore, if PCL is successful, the reconstituted reporter is labeled only when the fusion proteins are incubated together in the presence of rapamycin.
Two pF9 (Kan) vectors were generated which contained either FRB or FKBP ORF plus the linker sequence (GlyGlyGlyGlySer)2 upstream of the SgfI/PmeI sites. A mutant DhaA gene (HT2) at positions corresponding to those useful to prepare Renilla luciferase fragments for PCS (see Example 2 and FIG. 7) with FRB-N-terminal and FKBP-C-terminal fusions. HT2 N- and C-termini halves were amplified using PCR primers and cloned into the SgfI/PmeI sites. PCL was performed in vitro by expressing each clone individually using RiboMax followed by Wheat Germ Plus reactions (HT2). Protein was expressed with or without FluoroTect™. FluoroTect™ labeling ensured that all proteins were expressed in approximately equal amounts (data not shown). Unlabeled proteins were then incubated alone or with the appropriated partner with or without 1 μM rapamycin. Ten μl of these products were then incubated with 0.1 μM of a TMR labeled ligand for the mutant dehalogenase, for 2 hours in the dark. […]

The subject of a further data set is CHO cells. As to the kind of experiment: Protein complementation labeling (PCL) with HT2 in transiently transfected CHO cells. Format: cell-based. The conditions noted are these: +/−1 μM rapamycin 2.5 hours, 1.0 μM HaloTag TMR ligand 1 hour. As for the experimental part: For transient transfections, CHO cells were plated in a 6 well plate and transfected in duplicate using TransIT®-CHO. The next day, cells were incubated +/−1 μM rapamycin for 2.5 hours followed by 1.0 μM HaloTag® TMR ligand for 1 hour. Cells were washed in PBS, trypsinized, pelleted and mechanically lysed in 200 ul PBS with protease inhibitor and RQDNase I. Normalized amounts of proteins were microwaved for 30 seconds on high and run on a denaturing NuPAGE® gel.

A short description of data set [3]: Kinetic labeling studies of purified DhaA mutants, fluorimage gel analysis. Format: biochemical. The conditions noted are these: fluorimaged gel, 10 ng protein, refined time-course.
Description: Preliminary kinetic labeling studies were performed using several DhaA.H272F derived mutants. […] A more expanded time course analysis was performed on the DhaA.H272F A7 and the two second generation DhaA.H272F mutants A7YM and H11YL. […] The fluorescent bands on gel were quantitated and the relative rates of product formation determined. In order to determine a labeling rate, the concentration of the H11YL was reduced from 50 ng to 10 ng and a more refined time-course was performed. Under these labeling conditions a linear initial rate could be measured. Quantitation of the fluorimaged gel data allowed second order rate constants to be calculated.
Data set [4] can be described thus: Fluorescence polarization (FP) labeling kinetics of purified DhaA mutants, TMR substrate. Format: biochemical.
Source text: as §1, §2

Data set [5] in a line: Binding of DhaA mutants to carboxytetramethylrhodamine chloroalkane substrate. As for the experimental part:
DhaA.H272 mutants, i.e. H272F/G/A/Q, bound to carboxytetramethylrhodamine-C10H21NO2—Cl.
A control mutant, DhaA.D106Q, single mutants DhaA.D106C, DhaA.D106Y, and DhaA.D106E, as well as double mutants DhaA.D106C:H272F, DhaA.D106E:H272F, DhaA.D106Q:H272F, and DhaA.D106Y:H272F were analyzed for binding to carboxytetramethylrhodamine-C10H21NO2—Cl. Carboxytetramethylrhodamine-C10H21NO2—Cl bound to DhaA.D106C, DhaA.D106C:H272F, DhaA.D106E, and DhaA.H272F. Thus, the bond formed between carboxytetramethylrhodamine-C10H21NO2—Cl and cysteine or glutamate at residue 106 in a mutant DhaA is stable relative to the bond formed between carboxytetramethylrhodamine-C10H21NO2—Cl and DhaA.WT. Other substitutions at position 106 alone or in combination with substitutions at other residues in DhaA may yield similar results. Further, certain substitutions at position 106 alone or in combination with substitutions at other residues in DhaA may result in a mutant DhaA that forms a bond with only certain substrates.

The nature of data set [6]: MagneGST-based labeling assay of DhaA mutants, biotin substrate. Format: biochemical. An excerpt: An automated MagneGST™-based assay was used to screen the DhaA mutant protein libraries. […] The hits identified by the initial primary screen were located in the master plates, consolidated, re-grown and reanalyzed using the MagneGST™ assay.
In order to distinguish these recombined protein mutants from the mutants identified in round one of screening (first generation), they are referred to as “second generation” DhaA mutants.

T1 sequence (P42345 2012-2144 limits assumed): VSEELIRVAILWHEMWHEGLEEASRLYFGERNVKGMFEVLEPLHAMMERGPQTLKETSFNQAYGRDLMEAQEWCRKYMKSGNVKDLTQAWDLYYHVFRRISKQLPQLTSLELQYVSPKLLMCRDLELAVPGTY
T1 sequence (P62942 whole entry): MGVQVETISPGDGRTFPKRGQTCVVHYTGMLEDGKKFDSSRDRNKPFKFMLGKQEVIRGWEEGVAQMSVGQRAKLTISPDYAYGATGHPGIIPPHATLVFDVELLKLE

B1: H11YL: second generation DhaA.H272F mutant, H11 recombined with Y273L (SEQ ID NO:3) (protein)
chain: SEIGTGFPFDPHYVEVLGERMHYVDVGPRDGTPVLFLHGNPTSSYLWRNIIPHVAPSHRCIAPDLIGMGKSDKPDLDYFFDDHVRYLDAFIEALGLEEVVLVIHDWGSALGFHWAKRNPERVKGIACMEFIRPIPTWDEWPEFARETFQAFRTADVGRELIIDQNAFIEGALPMGVVRPLTEVEMDHYREPFLKPVDREPLWRFPNELPIAGEPANIVALVEAYMNWLHQSPVPKLLFWGTPGVLIPPAEAARLAESLPNCKTVDIGPGLFLLQEDNPDLIGSEIARWLPAL
modifications: A synthetic mutant dehalogenase sequence
With B1, the “carboxyfluorescein-C10H21NO2—Cl labeling rate slower/lower than carboxytetramethylrhodamine-C10H21NO2—Cl labeling rate” value in data set [1] is on record as 100 fold. For the same molecule, the TMR labeling entry in data set [2] is given as “labeled”. Also, the “TMR labeling in CHO cells” value with CHO cells is listed as “labeled irrespective of rapamycin addition”. In addition, the “second order rate constant for carboxytetramethylrhodamine-C10H21NO2—Cl labeling” value in data set [3] was 500000 M⁻¹ s⁻¹. In addition, the “second order rate constant with carboxytetramethylrhodamine-C10H21NO2—Cl” value in data set [4] turned out to be 2.2e+06 M⁻¹ s⁻¹.

B2: DhaA.D106C: DhaA with Asp106 replaced by Cys (protein, UniProt P0A3G2 1-293, looked up, variant D106C)
Haloalkane dehalogenase: MSEIGTGFPFDPHYVEVLGERMHYVDVGPRDGTPVLFLHGNPTSSYLWRNIIPHVAPSHRCIAPDLIGMGKSDKPDLDYFFDDHVRYLDAFIEALGLEEVVLVIHCWGSALGFHWAKRNPERVKGIACMEFIRPIPTWDEWPEFARETFQAFRTADVGRELIIDQNAFIEGALPKCVVRPLTEVEMDHYREPFLKPVDREPLWRFPNELPIAGEPANIVALVEAYMNWLHQSPVPKLLFWGTPGVLIPPAEAARLAESLPNCKTVDIGPGLHYLQEDNPDLIGSEIARWLPAL
Take B2: in data set [5], the “binding to carboxytetramethylrhodamine-C10H21NO2—Cl” value (“binding” below) is “bound”.

B3: YL: DhaA.H272F based mutant Y273L (protein, UniProt P0A3G2 1-293, looked up, variant H272F Y273L)
Haloalkane dehalogenase: MSEIGTGFPFDPHYVEVLGERMHYVDVGPRDGTPVLFLHGNPTSSYLWRNIIPHVAPSHRCIAPDLIGMGKSDKPDLDYFFDDHVRYLDAFIEALGLEEVVLVIHDWGSALGFHWAKRNPERVKGIACMEFIRPIPTWDEWPEFARETFQAFRTADVGRELIIDQNAFIEGALPKCVVRPLTEVEMDHYREPFLKPVDREPLWRFPNELPIAGEPANIVALVEAYMNWLHQSPVPKLLFWGTPGVLIPPAEAARLAESLPNCKTVDIGPGLFLLQEDNPDLIGSEIARWLPAL
In the case of B3, in data set [6], the “improvement over the parental clones using the biotin-PEG4-14-Cl substrate” value (from here on “improvement over the parental clones”) is on record as “significantly improved”.

B4: DhaA.D106C:H272F: DhaA double mutant D106C and H272F (protein, UniProt P0A3G2 1-293, looked up, variant D106C H272F)
Haloalkane dehalogenase: MSEIGTGFPFDPHYVEVLGERMHYVDVGPRDGTPVLFLHGNPTSSYLWRNIIPHVAPSHRCIAPDLIGMGKSDKPDLDYFFDDHVRYLDAFIEALGLEEVVLVIHCWGSALGFHWAKRNPERVKGIACMEFIRPIPTWDEWPEFARETFQAFRTADVGRELIIDQNAFIEGALPKCVVRPLTEVEMDHYREPFLKPVDREPLWRFPNELPIAGEPANIVALVEAYMNWLHQSPVPKLLFWGTPGVLIPPAEAARLAESLPNCKTVDIGPGLFYLQEDNPDLIGSEIARWLPAL
As for B4, in data set [5], the “binding” value is “bound”.

B5: YC: DhaA.H272F based mutant Y273C (protein, UniProt P0A3G2 1-293, looked up, variant H272F Y273C)
Haloalkane dehalogenase: MSEIGTGFPFDPHYVEVLGERMHYVDVGPRDGTPVLFLHGNPTSSYLWRNIIPHVAPSHRCIAPDLIGMGKSDKPDLDYFFDDHVRYLDAFIEALGLEEVVLVIHDWGSALGFHWAKRNPERVKGIACMEFIRPIPTWDEWPEFARETFQAFRTADVGRELIIDQNAFIEGALPKCVVRPLTEVEMDHYREPFLKPVDREPLWRFPNELPIAGEPANIVALVEAYMNWLHQSPVPKLLFWGTPGVLIPPAEAARLAESLPNCKTVDIGPGLFCLQEDNPDLIGSEIARWLPAL
B5: in data set [6], the “improvement over the parental clones” value is reported as “significantly improved”.

B6: DhaA.H272F: Rhodococcus rhodochrous dehalogenase DhaA with His272 replaced by Phe (protein, UniProt P0A3G2 1-293, looked up, variant H272F)
Haloalkane dehalogenase: MSEIGTGFPFDPHYVEVLGERMHYVDVGPRDGTPVLFLHGNPTSSYLWRNIIPHVAPSHRCIAPDLIGMGKSDKPDLDYFFDDHVRYLDAFIEALGLEEVVLVIHDWGSALGFHWAKRNPERVKGIACMEFIRPIPTWDEWPEFARETFQAFRTADVGRELIIDQNAFIEGALPKCVVRPLTEVEMDHYREPFLKPVDREPLWRFPNELPIAGEPANIVALVEAYMNWLHQSPVPKLLFWGTPGVLIPPAEAARLAESLPNCKTVDIGPGLFYLQEDNPDLIGSEIARWLPAL
Turning to B6, the “binding” value in data set [5] is given as “bound”. The “fold more protein required in the reaction to obtain measurable rates” value in data set [4] (relative to DhaA.H272F H11YL) is roughly 420 fold.

B7: DhaA.D106E: DhaA single mutant D106E (protein, UniProt P0A3G2 1-293, looked up, variant D106E)
Haloalkane dehalogenase: MSEIGTGFPFDPHYVEVLGERMHYVDVGPRDGTPVLFLHGNPTSSYLWRNIIPHVAPSHRCIAPDLIGMGKSDKPDLDYFFDDHVRYLDAFIEALGLEEVVLVIHEWGSALGFHWAKRNPERVKGIACMEFIRPIPTWDEWPEFARETFQAFRTADVGRELIIDQNAFIEGALPKCVVRPLTEVEMDHYREPFLKPVDREPLWRFPNELPIAGEPANIVALVEAYMNWLHQSPVPKLLFWGTPGVLIPPAEAARLAESLPNCKTVDIGPGLHYLQEDNPDLIGSEIARWLPAL
Regarding B7, the “binding” value in data set [5] is reported as “bound”.

B8: YM: DhaA.H272F based mutant Y273M (protein, UniProt P0A3G2 1-293, looked up, variant H272F Y273M)
Haloalkane dehalogenase: MSEIGTGFPFDPHYVEVLGERMHYVDVGPRDGTPVLFLHGNPTSSYLWRNIIPHVAPSHRCIAPDLIGMGKSDKPDLDYFFDDHVRYLDAFIEALGLEEVVLVIHDWGSALGFHWAKRNPERVKGIACMEFIRPIPTWDEWPEFARETFQAFRTADVGRELIIDQNAFIEGALPKCVVRPLTEVEMDHYREPFLKPVDREPLWRFPNELPIAGEPANIVALVEAYMNWLHQSPVPKLLFWGTPGVLIPPAEAARLAESLPNCKTVDIGPGLFMLQEDNPDLIGSEIARWLPAL
In the case of B8, in data set [6], the “improvement over the parental clones” value is on record as “significantly improved”.
